# Where a chain is given by its changes, count along the chain named.
# B1: J1-183D variant 2: humanised/de-immunised J1-183D: J1-183D_VL_1 + J1-183D_VH_2 (antibody, V domains shown)
# VH: QVQLVQSGAELKKPGASVKVSCKVSGYAFTDYAIHWIRQAPGQGLEWMGIINTYYGDSKYAQKFQGRVTMTVDTSTSTAYMELSSLRSEDTAVYYCARGYDGFAYWGQGTLVTVSSASTKGP
# VL: DIQMTQSPSSLSASVGDRVTITCRTSENIYSYLTWYQQKPGKAPKLLVYNAKILAAGVPSRFSGSGSGTDFTLTISSLQPEDFATYYCQHHYDIPWTFGGGTKLEIKRT
# B2: J1-183D variant 3: humanised/de-immunised J1-183D: J1-183D_VL_1 + J1-183D_VH_3 (antibody, V domains shown)
# VH: B1 VH with I37V
# VL: B1 VL
# B3: J1-183D variant 4: humanised/de-immunised J1-183D: J1-183D_VL_1 + J1-183D_VH_4 (antibody, V domains shown)
# VH: B1 VH with L11V, V24A, A28T, I37V
# VL: B1 VL
# B4: J1-183D variant 5: humanised/de-immunised J1-183D: J1-183D_VL_2 + J1-183D_VH_1 (antibody, V domains shown)
# VH: B1 VH with A61N, Q65K, G66D, T74K
# VL: B1 VL with V48I, I53T, A56S
# B5: J1-183D variant 6: humanised/de-immunised J1-183D: J1-183D_VL_2 + J1-183D_VH_2 (antibody, V domains shown)
# VH: B1 VH
# VL: B1 VL with V48I, I53T, A56S
# B6: J1-183D variant 7: humanised/de-immunised J1-183D: J1-183D_VL_2 + J1-183D_VH_3 (antibody, V domains shown)
# VH: B1 VH with I37V
# VL: B1 VL with V48I, I53T, A56S
# B7: J1-183D variant 10: humanised/de-immunised J1-183D: J1-183D_VL_3 + J1-183D_VH_2 (antibody, V domains shown)
# VH: B1 VH
# VL: B1 VL with V48I, A55D, A56S
# B8: J1-183D variant 11: humanised/de-immunised J1-183D: J1-183D_VL_3 + J1-183D_VH_3 (antibody, V domains shown)
# VH: B1 VH with I37V
# VL: B1 VL with V48I, A55D, A56S
# B9: J1-183D variant 13: humanised/de-immunised J1-183D: J1-183D_VL_4 + J1-183D_VH_1 (antibody, V domains shown)
# VH: B1 VH with A61N, Q65K, G66D, T74K
# VL: B1 VL with V48I, N50H, A55D, A56S
# B10: J1-183D variant 14: humanised/de-immunised J1-183D: J1-183D_VL_4 + J1-183D_VH_2 (antibody, V domains shown)
# VH: B1 VH
# VL: B1 VL with V48I, N50H, A55D, A56S
# B11: J1-183D variant 16: humanised/de-immunised J1-183D: J1-183D_VL_4 + J1-183D_VH_4 (antibody, V domains shown)
# VH: B1 VH with L11V, V24A, A28T, I37V
# VL: B1 VL with V48I, N50H, A55D, A56S
# B12: J1-65D chimeric: chimeric antibody with unaltered CDRs: J1-65D_VL + J1-65D_VH (antibody, V domains shown)
# VL: DIQLTQSPASLSASVGETVTITCRASGNIHNYLAWYQQKQGKSPQLLVYNAKTLADDIPSRFSGSGSGTQYSLKINSLQPEDFGSYYCQHFWSAPWTFGGGTKLEIK
# VH: QVQLQQPGAELVRPGASVKLSCKALGYTFTDYEMHWVKETPVHGLEWIGAIQPGGGGTAYNQKFKGKATLTADKSSSTAYMELSSLTSEDSAVYYCTRRGYDDYPFAYWGQGTLVTVSS
# Target: T1, N1 binding to cell surface expressed hJ1 (Homo sapiens, UniProt P78504)
# T1 construct: cell expressed full length human J1 (hJ1; HEK293 transfectants); expressed in transfected cells; host or cells: HEK293
# T1 sequence (P78504 34-1218): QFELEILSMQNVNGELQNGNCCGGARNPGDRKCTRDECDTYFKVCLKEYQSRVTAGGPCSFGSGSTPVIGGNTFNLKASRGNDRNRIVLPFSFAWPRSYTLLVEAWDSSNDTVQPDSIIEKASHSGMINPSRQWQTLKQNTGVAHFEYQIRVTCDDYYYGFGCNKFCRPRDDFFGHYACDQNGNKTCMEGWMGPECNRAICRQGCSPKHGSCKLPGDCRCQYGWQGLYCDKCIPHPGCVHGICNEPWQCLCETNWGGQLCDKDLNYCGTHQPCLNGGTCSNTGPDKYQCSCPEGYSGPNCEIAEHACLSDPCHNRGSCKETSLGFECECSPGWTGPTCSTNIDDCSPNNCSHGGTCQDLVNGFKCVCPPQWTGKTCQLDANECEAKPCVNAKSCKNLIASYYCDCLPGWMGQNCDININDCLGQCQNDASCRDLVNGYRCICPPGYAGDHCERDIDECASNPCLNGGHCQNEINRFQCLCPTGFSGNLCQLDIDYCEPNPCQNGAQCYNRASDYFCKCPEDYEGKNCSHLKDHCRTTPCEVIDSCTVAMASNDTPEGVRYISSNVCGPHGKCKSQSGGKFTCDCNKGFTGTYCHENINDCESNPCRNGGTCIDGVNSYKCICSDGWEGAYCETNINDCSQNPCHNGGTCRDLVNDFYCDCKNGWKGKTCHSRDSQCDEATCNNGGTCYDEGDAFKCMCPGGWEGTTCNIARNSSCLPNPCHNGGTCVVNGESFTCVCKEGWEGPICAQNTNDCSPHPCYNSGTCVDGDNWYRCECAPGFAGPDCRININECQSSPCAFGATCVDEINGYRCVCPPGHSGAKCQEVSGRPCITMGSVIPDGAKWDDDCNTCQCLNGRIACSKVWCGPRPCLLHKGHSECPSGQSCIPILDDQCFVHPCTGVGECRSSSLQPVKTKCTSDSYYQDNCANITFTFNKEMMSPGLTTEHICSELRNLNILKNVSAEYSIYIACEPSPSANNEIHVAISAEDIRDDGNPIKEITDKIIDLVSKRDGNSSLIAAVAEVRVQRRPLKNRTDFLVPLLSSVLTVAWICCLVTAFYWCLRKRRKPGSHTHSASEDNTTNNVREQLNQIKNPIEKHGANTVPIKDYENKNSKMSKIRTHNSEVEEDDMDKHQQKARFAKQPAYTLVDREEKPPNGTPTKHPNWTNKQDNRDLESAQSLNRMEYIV
# Test: Notch binding blocking assay (FACS): N1 EGF11-13 beads staining human J1-expressing cells
# Design: key: +: Complete blocking; X: No blocking
# Details: final antibody concentration 0.2 μg/ml
# Description: To functionally identify mAbs with the capacity to disrupt the J1-N1 protein:protein interaction, hybridoma culture supernatants were tested in a FACS-based binding assay. Biotinylated soluble human N1 EGF11-13 recombinant protein was bound to avidin-coated beads and used to stain J1-expressing cells in the presence or absence of each mAb that recognised cell surface hJ1 by FACS. […] The four blocking antibodies of the invention were also able to block the binding of recombinant […] to a biotin-tagged J1 DSL-EGF3 recombinant protein in an ELISA assay (FIG. 1B). […] The four blocking mAbs of the invention were purified from serum-free culture supernatants and equal concentrations of purified antibodies were used to compare their activity in subsequent assays (unless hybridoma supernatant was specified). Sequence conservation across the DSL domain raised the possibility that the J1 mAbs may also be able to bind the Jagged 2 (J2) protein. Antibody binding specificity was initially tested by immunocytochemical labelling of cytospin samples of hJ1 and hJ2 transfectants (FIG. 2). All antibodies stained J1 transfectants but none stained the J2 transfected cells, and J2 expression in the same experiment was confirmed using a commercial anti-J2 antibody. The specificity of the purified mAbs was further investigated in mammalian cells transfected with hJ2, human Delta-like ligand 4 (hDLL4), or mJ1 (FIG. 3). Transfectants were FACS stained with 10 μg/ml of each of the four blocking mAbs.
# To test the blocking efficiencies of the J1 mAbs, purified mAbs were titrated to determine the concentration required to block recombinant N1 binding to cell surface expressed hJ1. Beads coated with a bacterially-expressed N1 EGF11-13 protein were used to stain the hJ1-expressing cells in the presence of various concentrations of mAbs.
# The FACS-based binding assay using biotinylated soluble human N1 EGF11-13 recombinant protein bound to avidin-coated fluorescent beads to stain J1-expressing cells was performed using a dilution series of each variant mAb to test their ability to block J1 binding to N1 by FACS (Table 7). […] Thus 12/16 J1-65D1 variants V1-12 and all J1-183D variants have the desired binding and blocking activity.
# Human N1 EGF11-13 (411-526) was expressed in E. coli, refolded in vitro and labelled with purple fluorescent avidin-coated beads (Spherotech) as previously described. HEK293 cells transfected with human J1 or B16F10 cells transfected with mouse J1 were stained with N1 fluorescent beads in the presence of J1 antibody supernatants or purified antibody (murine, chimeric or humanised) diluted in HBBS/10% FCS. Cells were washed and re-suspended in staining buffer before being analysed with a FACSCalibur and data analysis with CellQuest. HEK293 cells transfected with human Jagged 2 and B16F10 cells transfected with human and mouse DLL4 were stained similarly to test blocking specificity.
row,Molecule,Blocking of Notch1 binding to cell surface Jagged 1
1,B1,X
2,B2,X
3,B3,X
4,B4,X
5,B5,X
6,B6,X
7,B7,X
8,B8,X
9,B9,X
10,B10,X
11,B11,X
12,B12,X

# Same assay, conditions: final antibody concentration 0.4 μg/ml
row,Molecule,Blocking of Notch1 binding to cell surface Jagged 1
1,B1,+ (Complete blocking)
2,B2,+ (Complete blocking)
3,B3,+ (Complete blocking)
4,B4,+ (Complete blocking)
5,B5,+ (Complete blocking)
6,B6,+ (Complete blocking)
7,B7,+ (Complete blocking)
8,B8,+ (Complete blocking)
9,B9,+ (Complete blocking)
10,B10,+ (Complete blocking)
11,B11,+ (Complete blocking)
12,B12,+ (Complete blocking)

# Same assay, conditions: final antibody concentration 0.6 μg/ml
row,Molecule,Blocking of Notch1 binding to cell surface Jagged 1
1,B1,+ (Complete blocking)
2,B2,+ (Complete blocking)
3,B3,+ (Complete blocking)
4,B4,+ (Complete blocking)
5,B5,+ (Complete blocking)
6,B6,+ (Complete blocking)
7,B7,+ (Complete blocking)
8,B8,+ (Complete blocking)
9,B9,+ (Complete blocking)
10,B10,+ (Complete blocking)
11,B11,+ (Complete blocking)
12,B12,+ (Complete blocking)

# Same assay, conditions: final antibody concentration 1.0 μg/ml
row,Molecule,Blocking of Notch1 binding to cell surface Jagged 1
1,B1,+ (Complete blocking)
2,B2,+ (Complete blocking)
3,B3,+ (Complete blocking)
4,B4,+ (Complete blocking)
5,B5,+ (Complete blocking)
6,B6,+ (Complete blocking)
7,B7,+ (Complete blocking)
8,B8,+ (Complete blocking)
9,B9,+ (Complete blocking)
10,B10,+ (Complete blocking)
11,B11,+ (Complete blocking)
12,B12,+ (Complete blocking)

# Tested on: not listed separately
# Test: Soluble aggregates of transiently expressed antibodies
# Assay type: physicochemical
# Details: Protein A purified antibody
# Excerpt: The protein yield of these antibodies, their levels of soluble aggregates and their binding affinity to the immunogen (J1-DE3) are illustrated in (Table 6).
row,Molecule,% soluble aggregate
1,B1,3.58%
2,B2,2.87%
3,B3,0.85%
4,B4,4.38%
5,B5,4.6%
6,B6,3.92%
7,B7,2.89%
8,B8,2.5%
9,B9,3.43%
10,B10,3.02%
11,B11,0.72%
12,B12,0%

# Source: patent US9725518B2, “Antibodies that bind to Jagged 1” (Cancer Research Technology Limited, priority 2013, dated 2017)
